Results reported in patent publication US20110286958A1, “HPMA POLYMER PLATINUM CHELATES” (Access Pharmaceuticals, Inc., priority 2010, published 2011).
Ends that are not written are not given here. Ama = amidomalonate chelating group bound to Pt

Columns and labels:
[1] = 27° C.; cited from earlier work
[2] = Release of small molecule Pt species from polymer-linker-Pt complexes at 37° C. in PBS; type: physicochemical; settings: for Percent small platinum released from 1R,2R-DACH Pt(II) complex at 37° C. in PBS, 3 hours / Percent small platinum released from 1R,2R-DACH Pt(II) complex at 37° C. in PBS, 24 hours: 1R,2R-DACH stable chelate; for Percent small platinum released from cis-diammine Pt(II) complex at 37° C. in PBS, 3 hours / Percent small platinum released from cis-diammine Pt(II) complex at 37° C. in PBS, 24 hours: cis-diammine stable ligands
Text: The compound tested comprised a poly(N-(2-hydroxypropyl)methacrylamide (10%)-co-methacrylamide (90%)) backbone polymer and either cis-diammine or 1R,2R-diaminocyclohexane (DACH) as the stable ligands/chelate of the Pt complex. The leaving-ligand comprised an N,O bidentate ligand with amidoaspartate (Asp) or amidomalonate (Ama).

[3] = Relative toxicity of Compound 1 made by two different processes, body weight in mice; type: in vivo, Female C57BL/6 mice; settings: murine study; new process versus process of U.S. Pat. No. 7,166,733
Procedure: Biological evaluation can be carried out with the methods as described below.
Female C57BL/6 mice were randomized into 7 groups of 5 mice each. Each mouse was identified by ear notch and followed individually throughout the study. Animals were observed and weighed prior to dosing for establishment of dosing volumes. All mice were dosed by a single IP injection with either a) Compound 1 made by the processes described herein, b) Compound 1 made by the process described in U.S. Pat. No. 7,166,733, or c) vehicle control. Three doses of each compound were tested: 75 mg Pt/kg, 100 mg Pt/kg and 150 mg Pt/kg. Test compounds were dissolved in isotonic glucose and administered in a volume of 0.4 mL per 20 g body weight. Gross observations and body weights were recorded daily for 14 days. Percent body weight change for each animal on each day was calculated as the percent change from their body weight recorded on day 1 just prior to injection of compounds.

Compound | pKa1 [1] | pKa2 [1] | Percent small platinum released from 1R,2R-DACH Pt(II) complex at 37° C. in PBS, 3 hours [2] | Percent small platinum released from 1R,2R-DACH Pt(II) complex at 37° C. in PBS, 24 hours [2] | Percent small platinum released from cis-diammine Pt(II) complex at 37° C. in PBS, 3 hours [2] | Percent small platinum released from cis-diammine Pt(II) complex at 37° C. in PBS, 24 hours [2] | safety profile [3]
NC1CCCCC1N.O.O.O=[N+]([O-])[O-].O=[N+]([O-])[O-].[Pt+2] (stereo not drawn) [diaqua platinum species, 1R,2R-DACH-diaquaplatinum (II) dinitrate] | 5.4 | 7.2 |  |  |  |  | 
Gly-Phe-Leu-Gly-Ama=Pt= (GFLG-Ama; also: Pt complex via Ama (=Pt=)) |  |  | 0.7% | 2.4% | 0.7% | 2.1% | 
Gly-Phe-Leu-Gly-Asp=Pt= (GFLGD; also: Pt conjugation (Asp=Pt=)) |  |  | 2.0% | 6.5% | 1.5% | 4.7% | 
poly(HPMA)-GGG-Ama=PtDACH [Compound 1] |  |  |  |  |  |  | safety profile identical to that of Compound 1 made by the processes described previously
